Here are results for two molecules from publication PMC7242440 (2020).

In assay [1] the target is Mpa (Mycobacterium tuberculosis) (UniProt P9WQN5). The following applies: cited from earlier work.
The target of the next assay is T1, Mpa (Mycobacterium tuberculosis, UniProt P9WQN5).
T1 chain: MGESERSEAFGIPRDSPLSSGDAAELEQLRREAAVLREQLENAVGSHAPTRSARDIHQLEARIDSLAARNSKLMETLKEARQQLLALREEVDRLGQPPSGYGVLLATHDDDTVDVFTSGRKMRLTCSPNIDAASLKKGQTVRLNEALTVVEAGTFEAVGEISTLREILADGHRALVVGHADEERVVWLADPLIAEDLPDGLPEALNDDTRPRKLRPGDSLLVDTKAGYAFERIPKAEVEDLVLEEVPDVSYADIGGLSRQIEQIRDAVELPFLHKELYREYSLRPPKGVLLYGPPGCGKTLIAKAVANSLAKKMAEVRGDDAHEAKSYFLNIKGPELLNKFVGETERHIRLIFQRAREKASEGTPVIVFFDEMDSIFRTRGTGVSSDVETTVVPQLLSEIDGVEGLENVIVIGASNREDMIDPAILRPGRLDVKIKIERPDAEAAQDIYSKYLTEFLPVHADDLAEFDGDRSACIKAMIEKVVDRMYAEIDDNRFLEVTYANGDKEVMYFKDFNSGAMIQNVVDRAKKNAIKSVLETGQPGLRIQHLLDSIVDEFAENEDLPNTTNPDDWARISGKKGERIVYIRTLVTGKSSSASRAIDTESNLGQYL
Kind of assay: NMR.

Consider Pup (from UniProt P9WHN5), for which the equilibrium dissociation constant (Kd) in assay [1] was 3.5 µM.

B1: Pup (protein)
chain: MAQEQTKRGGGGGDDDDIAGSTAAGQERREKLTEETDDLLDEIDDVLEENAEDFVRAYVQKGGQ
With B1, the Kd with Mpa was ~28 µM.
